Assay results from PMC8219104 (2021).

B1: Sybody Sb16 (VHH)
VHH: QVQLVESGGGLVQAGGSLRLSCAASGFPVAYKTMWWYRQAPGKEREWVAAIESYGIKWTRYADSVKGRFTISRDNAKNTVYLQMNSLKPEDTAVYYCIVWVGAQYHGQGTQVTVSA
B2: Sybody Sb14 (VHH)
VHH: QVQLVESGGGLVQAGGSLRLSCAASGFPVQAREMEWYRQAPGKEREWVAAIKSTGTYTAYAYSVKGRFTISRDNAKNTVYLQMNSLKPEDTAVYYCYVYVGSSYIGQGTQVTVSA
B3: Sybody Sb68 (VHH)
VHH: QVQLVESGGGSVQAGGSLRLSCAASGSISSITYLGWFRQAPGKEREGVAALITVNGHTYYADSVKGRFTVSLDNAKNTVYLQMNSLKPEDTALYYCAAAAWGYAWPLHQDDYWYWGQGTQVTVSA
B4: Sybody Sb15 (VHH)
VHH: QVQLVESGGGLVQAGGSLRLSCAASGFPVKNFEMEWYRKAPGKEREWVAAIQSGGVETYYADSVKGRFTISRDNAKNTVYLQMNSLKPEDTAVYYCFVYVGRSYIGQGTQVTVS

Each binder was assayed against T1, SARS-CoV-2 spike receptor-binding domain (RBD), amino acids 333 to 529, bacteria-expressed and refolded (SARS-CoV-2, UniProt P0DTC2 333-529) (assay: SPR).

| Binder | koff |
| --- | --- |
| B1 | 0.02 s⁻¹ |
| B2 | 0.007 s⁻¹ |
| B3 | 0.023 s⁻¹ |
| B4 | 0.011 s⁻¹ |

Target: T1, SARS-CoV-2 spike receptor-binding …
Assay: SPR
Remark: another data set of the same source

| Binder | Kd |
| --- | --- |
| B1 | 40.6 nM |
| B2 | 13.8 nM |
